For one substance, tyrosine phosphorylation of STAT3 in NHEK (Western blot) results are on record in patent publication US20090104146A1.

The target of this assay is gp130/OSMRβ receptor complex (type II OSM receptor) on NHEK (human) (UniProt P40189). Put plainly: cell-based or functional assay.
gp130/OSMRβ receptor complex (type II OSM receptor) on NHEK (human), sequence (P40189 23-918, chain 1 of 2): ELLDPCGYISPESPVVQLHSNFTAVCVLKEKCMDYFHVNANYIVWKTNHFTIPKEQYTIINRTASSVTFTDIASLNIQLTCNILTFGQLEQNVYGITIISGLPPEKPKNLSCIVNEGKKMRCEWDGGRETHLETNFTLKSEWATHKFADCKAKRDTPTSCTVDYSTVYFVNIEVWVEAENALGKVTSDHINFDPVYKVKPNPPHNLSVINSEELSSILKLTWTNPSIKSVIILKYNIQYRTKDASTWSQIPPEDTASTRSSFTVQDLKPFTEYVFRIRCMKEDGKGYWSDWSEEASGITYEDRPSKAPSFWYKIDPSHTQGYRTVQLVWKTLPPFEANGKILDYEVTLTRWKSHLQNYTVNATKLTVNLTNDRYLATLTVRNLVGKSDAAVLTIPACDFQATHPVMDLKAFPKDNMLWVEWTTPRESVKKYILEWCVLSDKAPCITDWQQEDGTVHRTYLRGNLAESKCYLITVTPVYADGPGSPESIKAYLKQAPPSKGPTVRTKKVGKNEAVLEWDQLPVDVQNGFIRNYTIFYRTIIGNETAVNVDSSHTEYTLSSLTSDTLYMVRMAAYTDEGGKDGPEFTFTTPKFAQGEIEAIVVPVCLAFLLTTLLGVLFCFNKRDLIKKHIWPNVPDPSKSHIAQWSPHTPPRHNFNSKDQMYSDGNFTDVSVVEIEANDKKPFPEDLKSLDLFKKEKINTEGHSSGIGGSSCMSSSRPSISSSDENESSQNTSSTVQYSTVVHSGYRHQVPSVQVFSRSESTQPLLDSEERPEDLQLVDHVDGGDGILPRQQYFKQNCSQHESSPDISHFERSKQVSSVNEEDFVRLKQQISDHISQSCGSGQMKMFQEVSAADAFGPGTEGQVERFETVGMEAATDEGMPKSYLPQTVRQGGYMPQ
gp130/OSMRβ receptor complex (type II OSM receptor) on NHEK (human), sequence (Q99650 28-979, chain 2 of 2, further chain): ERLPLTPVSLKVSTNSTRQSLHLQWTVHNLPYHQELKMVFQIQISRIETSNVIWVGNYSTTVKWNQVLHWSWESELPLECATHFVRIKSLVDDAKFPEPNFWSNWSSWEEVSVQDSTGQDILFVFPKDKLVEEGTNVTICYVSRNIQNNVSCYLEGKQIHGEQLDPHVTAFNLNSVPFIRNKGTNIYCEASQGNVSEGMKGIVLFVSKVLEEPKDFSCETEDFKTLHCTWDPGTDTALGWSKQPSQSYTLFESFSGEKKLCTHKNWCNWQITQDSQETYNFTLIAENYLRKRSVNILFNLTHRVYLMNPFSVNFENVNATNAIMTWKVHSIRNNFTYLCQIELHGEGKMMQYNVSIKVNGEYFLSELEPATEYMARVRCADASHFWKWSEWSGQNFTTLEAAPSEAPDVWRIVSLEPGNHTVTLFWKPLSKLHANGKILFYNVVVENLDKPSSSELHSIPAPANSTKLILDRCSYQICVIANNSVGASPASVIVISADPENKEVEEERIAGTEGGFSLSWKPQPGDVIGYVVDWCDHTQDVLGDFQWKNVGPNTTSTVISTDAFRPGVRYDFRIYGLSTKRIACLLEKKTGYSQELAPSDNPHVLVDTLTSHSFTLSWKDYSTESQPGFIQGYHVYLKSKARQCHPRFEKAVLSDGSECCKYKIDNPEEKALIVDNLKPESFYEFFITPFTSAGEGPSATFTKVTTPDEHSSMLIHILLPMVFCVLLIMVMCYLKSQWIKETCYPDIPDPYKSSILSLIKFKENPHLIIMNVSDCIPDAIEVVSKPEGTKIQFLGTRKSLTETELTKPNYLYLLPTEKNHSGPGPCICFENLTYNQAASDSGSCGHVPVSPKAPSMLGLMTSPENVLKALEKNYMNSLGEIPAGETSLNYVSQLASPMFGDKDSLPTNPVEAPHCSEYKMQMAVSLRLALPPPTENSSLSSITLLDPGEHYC

Substance “Human recombinant oncostatin M (OSM) (from UniProt P13725 26-221) (ligand)” came in with a tyrosine phosphorylation of STAT3 in NHEK (Western blot) of 3 ng/mL.
